Results taken from the nanobody polyreactivity screen of Harvey et al. (2022).

Assay: yeast display, Sf9 membrane polyspecificity reagent, FACS + sequencing; frameworks hold sequencing errors
In short: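 In a synthetic yeast display library (Saccharomyces cerevisiae BJ5465), nanobody expression was induced with galactose for 36–48 hours. FACS gates were set low and high (top ~1%) using anti-HA fluorescence for expression and streptavidin fluorescence for binding of the Sf9 membrane reagent. Each polyreactivity label is drawn from the gate of origin.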

Sequence	polyreactivity (PSR sort gate)
QVQRVESGGGLVQAGGSLRLSCAASGFIISWYAMGWSRQAPGKERELVAAISSGGSTTYADSVKGRFTISRDNAKNTVSLQMNSLKPEDTAVYYCNADQVYGYNYWGQGTQVTVSS	high polyreactivity
QVQRVESGGGLVQAGGSLRLSCAASGFILNQYAMGWYRQAPGKASELVAAISNGGSTNYADSVKGRFTISRDNAKNTVYLQMNSLKPEDTAVYYCAKDQSLTYSSLWGYDYWGQGTQVTVSS	low polyreactivity
QVQRVESGGGLVQAGGSLRLSCAASGFTFTDYAMGWYRQAPGKERELVAAITIGGGRTYYADSVKGRFTISRDNAKNTVYLQMNSLKPEDTAVYYCNARYQVPYGYWGQGTQVTVSS	low polyreactivity
QVQRVESGGGLVQAGGSLRLSCAASGGIVSAYAMGWYRQAPGKEREFVASISRRGGSTYYADSVKGRFTISRDNAKNTVYFQMNSLKREDTAVSYCNARKYFEKSREYWGQGTQVTVSS	high polyreactivity
QVQRVESGGGLVQAGGSLRLSCAASGIFYWYGMGWYRQAPGKDRELVASITGGGRTYYADSVKGRFTISRDNAKNTVYLQMNSLKPEDTAVNYCATRYWGGLPRRWYDYWGQGTQVTVSS	high polyreactivity
QVQRVESGGGLVQAGGSLRLSCAASGIIFPHNAMGWYRQAPGKERELVATISRSGARTYYADSVKGRFTISRDNAKNTVYLQMNSLKPEDTAVYYCAVQRLVYVYGAYDYWGQGTQVTVSS	high polyreactivity
QVQRVESGGGLVQAGGSLRLSCAASGLTFPSYAMGWYRQAPGKERELVATISNGSSTYYADSVKGRFTISRDNAKNTVYLQLNSLKPEDTAVYYCAKDYYYSRNPLYGHDYWGQGSQVTVSS	low polyreactivity
QVQRVESGGGLVQAGGSLRLSCAASGRIFRGNAMGWYRQAPGKERELVAAITSSGDSTFYADSVKGRFTISRDNANNTVYLQMNSLKPEDTAVYYCNALVQGKEYYWGQGTQVTVSS	high polyreactivity
QVQRVESGGGLVQAGGSLRLSCAASGRTFGPNAMGCYRQSPGKERELVAAITSGGRTYYADSVKGRFTISRDNAKNTVYLQMNSLKPEDTAVYYCAASYRWRSSGKGKYDYWGQGTQVTVSS	high polyreactivity
QVQRVESGGGLVQAGGSLRLSCAASGRTFGYNAMGWYRQAPGKERELVAAISSSGGSTYYADSVKGRFTISRDNAKNTVYLQMNSLKPEDTAVYYCATQGYSWAHGSDYWGQGTQVTVSS	low polyreactivity
QVQRVESGGGLVQAGGSLRLSCAASGRTLRYKGLYRQAPGKERELVAAITTGVSTNYADSVKGRFTISRDNAKNTVYLQMNSLKPEDTAVYYCAARARGTVYQYYYWGQGTQVTVSS	high polyreactivity
QVQRVESGGGLVQAGGSLRLSCAASGSIFEGYAMGWYRQAPGKQRELVARITSDDDSTYYADSVKGRFTISRDNAKFSVYLQMNSLIPEDTAVYYCNADYYWTSLAMDSWGQGTQVTVCS	low polyreactivity
QVQRVESGGGLVQAGGSLRLSCAASGSIFVFYAMGWYRQAPGKERELVATISSVGRTNYADSVKGRFTISRDNAKNTVYLQMNSLKPEDTAVYYCAARRFRGSYYWGQGTQVTVSS	high polyreactivity
QVQRVESGGGLVQAGGSLRLSCAASGSIFWRNAMGWSRQAPGKERELVAAITSGGSTDYADSVKGGFRISRDTAKNTVYLQIHSLKPEDPAVYYCAAVTWSGWDGYYYWGQGTQVTVSS	low polyreactivity
QVQRVESGGGLVQAGGSLRLSCAASGSIYRWNARGWSRQATGKERELVAVINSSGGSTYYADSVKGRFTISRDNAKNTVYLQMNSLKPEDTAVYYCAADLFLECSSQYAPNWWPDGWNTYRLLGGYWGQGTQVTVSS	low polyreactivity
QVQRVESGGGLVQAGGSLRLSCAASGSTFARYAMGWYRQAPGKEREFVAAITYSGGRTYYADTVKGRFTISRDNAKNTVYLQMNSLKPEDTAVYYCAARRRYRYDYWGQGTQVTVSS	high polyreactivity
QVQRVESGGGLVQAGGSLRLSCAASGSTFDRNAMGWYRQAPGKERELVAAIDYSGGSTYYADSVKGRFTISRDNAKNTVYLQMNSLKPEDTAVYYCAARVDGPDYSDGNYWGQGSQVTVSS	low polyreactivity
QVQRVESGGGLVQAGGSLRLSCAASGSTFEYYAMGWYRQAPGKERELVAAISGGGSTNYADSVKGRFTISRDNAKNTVYLQMNSLTPEVTAVYYCNASDVGSRTSNYWGQGTQVTVSS	low polyreactivity
QVQRVESGGGLVQAGGSLRLSCAASGSTIAKNAMGWYRQAPGKERELVAAISRGGNTYYADSVKGRFTISRDNAKNTVYLQMNSLKPEDTAVYYCAARYLYRSLKMDYWGQGTQVTVSS	high polyreactivity
QVQRVESGGGLVQAGGSLRLSCAASGVIFDDNAMGWYRQAPGKERELVAAITYRGGSTYYADSVKGRFTISRDNAKNTVYLQMNSLKPEDTAVYYCAAGGTARDDSWGQGTQVTVSS	low polyreactivity
QVQRVESGGGLVQAGGSLRLSCAASRSIVNIYAMGWDRPAPGKERELVATITGIADSTYYADSVKGRFTISRDNAKNTVYLQMNSLKPEDTAVYYCAIYVSWPLYYYWGHGTQVTVSS	low polyreactivity
QVQRVESGGGLVQAGGSLRLSCAPSGSTFPSYAMGWYRQAPGKERELVAAITRRGGRTYYADSVKGRFTISRDNAKKTVYLQMNSLKPEDTAVYYCNRVSRKILDGDYDYWGQGTQVTVSS	high polyreactivity

Sequence	polyreactivity (PSR sort gate)
QVQRVESGGGLVQAGGSLRLSCPASGRIFRYYAMGWYRPAPGKEREMVARITRNGGTTYYADSVKGRFTISRDNAKNTVYLQMNSLKPEDTAVYYCAATYSVPYYGAWPEYDYWGQGTQVTVSS	high polyreactivity
QVQRVESGGGLVQAGGSLRLSCPASGSTKFNAMGWNRQPPGKERELVATITANGDSTYYADSVKGRFTISRDNAKNTVYLQMNSLKPEDTAVYYCNADAYIRMDSWGQGTQVTVSS	low polyreactivity
QVQRVESGGGLVQAGRSLRLSCAASGRTFTVYAMGWYRQAPGKERELVAGIRRGDSTYYADSVKGRFTISRDNAKHTVYLQMNSLKPEDTAVYYCNARTSGSSYYYWGQGTQVTVCS	high polyreactivity
QVQRVESGGGLVQARGSLRLSCAASGSTFPAYAMGWYRQARGKEREWVATITYTGGSTFYADSVKGRFTISRDNAKNTVYLQMNILKPEDTEVYYCAADRGDQEDEFDYWGQGTQVTVSS	low polyreactivity
QVQRVESGGRLVQAGGILRVSCAASGGTFGINAMGWYRQSPGKEREFVAAITRGDGSTYYADSVKGRFTISRDNAKNTVFIQMKSLKPEDTAVYYCAKRYFVYYSMDYWGQGTQVTVSS	low polyreactivity
QVQRVESGRGLVQAGGSLRLSCAASGRTFRINAMGWYRQSPGKERELVASINSGGRTYYADSVKGRFTISRDNAKNTVYLQMNSLKPEDTAVYYCAAAGGRTGDYWGQGTQVTGSS	high polyreactivity
QVQRVESRGGLVKSGGSLRLSSASSGSTFRWYAMGWYRQAPGKERELVARINTRGGGTYYADSVKGRFTISRDNAKNTVYLQMNSLKPEDTAVYYCAAYSSWSGGLGGDYYWGQGTQVTVSS	low polyreactivity
QVQRVESRVSLVQEGGSLRLSCASSGLIYYRYTMGCYINAPVKEREVFAAISSGGRTYYADSVKGRFTISRDNAKNTVYLQMNSLKPEDTAVYYCATRVYSVHAPSAVPIGGYYWGQGTQVTVSS	high polyreactivity
QVQRVESVGGLVQAGGRLRLSCAASGRTFVYYTMGWYRQAPGKERELVAAISWNGDDTYYADSVKGRFTISRDNAKNTVYLQMNSLKPEDTAVYYCAKESYTDYDTYYYWGQGTQVTVSS	low polyreactivity
QVQVEESGGGLVQAGGSLRLSCAASGSIFNRYAMGWYRQAPGKERELVAAISRSGSTYYADSVKGRFTISRDNAKNTVYLQMNSLKAEDTEVYYCNARGTTHHTSYDYWGQGTQVTVSS	low polyreactivity
QVQVVESGGALVQEGGSLRISCAASGSIFAIYVLGWSRQAPGKERELVAAITGSGGSTYYADSVKGRFTISRDNAKITVYVQMNSQKPEDTAVYYCAARVLRVRTLTTTWGQGTQVTVSS	high polyreactivity
QVQVVESGGGFVQAGGSLRLSCAASGFTYYSYAMGWYRQAPGKEREFVAAGSTYYADSVKGRFTISRDNAKNTVYLQMNSLTPEDTAVYYCAADPWIYVQSYGYWGQGTQVTVSS	low polyreactivity
QVQVVESGGGLLQAGGSLRLSCAASGSTFGWYAMGWYRQAPWKERELVAANTGDSASTYYADSVKGRFTISRDNAKNTVYLQMNSLKPEDTAVYYCAASKFSDFGYQAVIGYGYWGQGTQVTVSS	low polyreactivity
QVQVVESGGGLLQAGGSLRLSCASSGSTFQYNAMGRYRPAPRKERELVAVITRRGGRTYYADSVKGRFTISRDNAKNTVYLQMNSLKPEDTAVYYCAAYYDYTHRFYYWGQGTQVTVSS	high polyreactivity
QVQVVESGGGLVKAGGSLSLSCDASGITFVAYAMGWYRQAPGKERELVAAISYNGGSTNYADSVKGRFTISRDNAMNTVYLQINSLKPEDTAVFYCAADLADFYPRFNYWGQGTQVTVSS	low polyreactivity
QVQVVESGGGLVNAAGSLRLSCAPSVSTSKWYTMGWDRQAPGKERELVAAITGSGGSTFYADSVKGRFTISRDNAKNTVYLQMHSLKQEDTAVYYCAADVYGGGVSFRFRYDSWGQGTQVTVSS	low polyreactivity
QVQVVESGGGLVPAGGSLRLSCAASGRIFADNDMGWYRQAPGKERELVAGISSGGGTYADSVKGRFSISRDNAKNTVSVQTNSPKPEDTAVHYCNALHAYYVLTPYDYWGQGTQVTVSS	low polyreactivity
QVQVVESGGGLVQAGGSLRLSCAASGFIFSFYAMGWYRQAPGKERELVAAINWSGGSTYYADSVKGRFTISRDNAKNTVYLQMNSLKPEDTAVYYCNAVQYFSIPKPVWLFVLRYYYWGQVTQVTVSS	low polyreactivity
QVQVVESGGGLVQAGGSLRLSCAASGFIFWEYAMGWYRQAAVKECELVSAISTSGGSTYYADSVKGRFTISRDNAMNSVYLQKNCLKQEDTAVYYCATDVYSGPLLKYDYWGQGTKVTVSS	low polyreactivity
QVQVVESGGGLVQAGGSLRLSCAASGFIFYVYAMGWYTQAPGKERELVAAISKRSGGTRYADSVKGRFTISRDNAKNTVYLQMNSLKPEDTAVYYCNKYGQVPGYFSLDYWGQGTQVTVSS	high polyreactivity
QVQVVESGGGLVQAGGSLRLSCAASGFTFAWYTMGWYRQAPGKERELVAAISTGGNTYYADSVKGRFTISRDNAKNTVYLQMNSLKPEDTAVYYCATRPRGQTYNYWGQVTQVTVSS	high polyreactivity
